{
  "source": "paper PMC4346626",
  "binders": {"B1": {"name": "Fab fragment of human monoclonal antibody 5J7 (Fab, V domains shown)", "VH": "QVQLVQSGAELRKPGSSVKVSCRASGGTFSSYTFNWVRQAPGQGLEWMGGFIPVFNTTNYAQTFQGRVTIAADKSTSTAYMELRSLRSEDTAIYYCARDKELLFSRAFDIWGQGTMVTVSS", "VL": "DIQMTQSPSSLSASVGDRVTITCRASQSISRYLNWYQREPGKAPKLLIYGASSLQRGVPSRFSGSGSGTDFTLTISSLQPEDFATYYCQQSQYIPYTFGQGTKVDIK"}},
  "target": "envelope (E) protein of DENV3 reference strain CH53489, on the virus particle (dengue virus serotype 3, strain CH53489)",
  "data": [
    {"binder": "B1", "values": [
      {"measurement": "neut50, flow cytometry-based neutralization of DENV3 (CH53489) infection of Vero-81 cells", "value": 0.041, "unit": "µg/mL"}
    ]}
  ]
}
